Assay [1] has as its target T1, CXCR4 on E17 fetal liver cells (Mus musculus, UniProt P70658).
T1 construct: the E17 fetal liver cells also express CXCR4; from tissue; host or cells: fetal liver cells of wildtype mouse embryos, E17
The experiment in a line: SDF-1 mediated calcium mobilization in E17 fetal liver cells. Type of assay: cell-based. Particulars: wildtype mouse embryo E17 fetal liver cells. In general terms: A change in cytosolic calcium serves as a functional read-out for many receptors and channels.

The subject of another assay is MDA MB-231 cells. Kind of assay: Matrigel invasion assay. Type of assay: cell-based, human. Conditions: breast tumor cells, 22 hrs. Here is the method: Invasion Assay. Invasion assays were performed as per the manufacturer's instructions. Briefly, chemokines were diluted in HBSS (Life Technologies, Gaithersburg, Md.) supplemented with 0.1% bovine albumin (Sigma Chemical Company, St. Louis, Mo.) and added to the lower wells of BD BioCoat Matrigel Invasion chambers (BD Biosciences, Bedford, Mass.). MDA MB-231 cells were added to the matrigel coated inserts and the plates were incubated at 37° C. in a humidified incubator at a 5% CO2/air mixture for 22 hrs. Following this incubation, the inserts were transferred to a new plate and the media in the inserts was removed. Using a cotton swab the matrigel plug was removed from each well. The filters were then stained using Protocol Hema staining system (Biochemical Sciences, Inc., Swedesboro, N.J.). Invading cells were examined under a Nikon Elipse E800 (Nikon, Inc., Melville, N.Y.) microscope with a 40× lens. Cells were counted in 5 fields of view of each filter. Data represent the mean of 5 fields of view from each filter tested in triplicate.

Assay [2] deals with tumor cells expressing the tumor correlated form of CXCR4. Kind of assay: Serum starvation apoptosis of tumor cells. Particulars: serum starved overnight, compared to untreated controls. It counts as cell-based.
The target in assay [3] is CCR1 on THP-1 cells (acute monocytic leukemia) (UniProt P32246). The experiment in a line: 125I MIP-1α competition binding on cells; THP-1 cells. Conditions: ligand.
Assay [4] concerns the target CCR1 on monocytes (UniProt P32246). The experiment in a line: 125I MIP-1α competition binding on cells; monocytes. Conditions: ligand.
Assay [5] has as its target CCR1 expressed on HEK293 transfectants (UniProt P32246). Kind of assay: 125I MIP-1α competition binding on cells; HEK293-CCR1 cells. Particulars: ligand.
In assay [6] the target is CCR1 expressed on NSO transfectants (UniProt P32246). The experiment in a line: 125I MIP-1α competition binding on cells; NSO-CCR1 cells. Conditions: ligand.
Assay [7] concerns the target T2, CXCR4 on MCF-7 cells (Homo sapiens, UniProt P25106).
T2 construct: host or cells: MCF-7 (whole cells)
The experiment in a line: 125I SDF-1α competition binding on MCF-7 cells. From the text:
(§1) Binding Analysis. We employed our technique, DisplaceMax, to examine the global profile of chemokine ligand interaction with CXCR4 on MCF-7 and CEM-NKr cells. This technology employs expanded, efficiency-maximized radioligand binding using filtration protocols as described previously (Kledal T N, et al. Science 277:1656-1659 (1997); Dairaghi, et al. J Biol Chem 274:21569-74 (1999); Gosling, J. et al. J Immunol 164:2851-6 (2000)). […] Where indicated, anti-CXCR4 antibodies or isotype controls were included in the binding reactions. In these experiments cells were pre-incubated with the indicated concentration of antibody for 30 min at 4° C. prior to the addition of radiolabeled chemokine. Small molecules were included in some assays, where indicated. In these assays the compound was added to the plate to the indicated concentration followed by the addition of radiolabeled chemokine. All assays were then incubated for 3 hrs at 4° C. with gentle agitation. Following incubation in all binding assays, reactions were aspirated onto PEI-treated GF/B glass filters (Packard) using a cell harvester (Packard) and washed twice (25 mM HEPES, 500 mM NaCl, 1 mM CaCl2, 5 mM MgCl2, adjusted to pH 7.1). Scintillant (MicroScint 10, Packard) was added to the wells, and the filters were counted in a Packard Topcount scintillation counter. Data were analyzed and plotted using Prism (GraphPad Prism version 3.0a for Macintosh, GraphPad Software).

The target of assay [8] is T3, CXCR4 on MCF-7 cells (Homo sapiens).
T3 construct: host or cells: MCF-7 (whole cells)
T3 sequence (P25106 whole entry): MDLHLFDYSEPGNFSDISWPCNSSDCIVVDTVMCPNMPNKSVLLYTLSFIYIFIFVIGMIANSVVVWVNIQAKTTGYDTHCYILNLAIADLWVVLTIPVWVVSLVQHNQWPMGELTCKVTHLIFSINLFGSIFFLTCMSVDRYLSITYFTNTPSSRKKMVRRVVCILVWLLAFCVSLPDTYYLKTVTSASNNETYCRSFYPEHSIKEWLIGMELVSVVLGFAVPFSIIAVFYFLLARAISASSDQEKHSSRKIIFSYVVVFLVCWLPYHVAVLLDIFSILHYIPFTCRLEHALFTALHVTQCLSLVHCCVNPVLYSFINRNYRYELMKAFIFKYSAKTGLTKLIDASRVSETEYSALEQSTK
Kind of assay: 125I SDF-1α competition binding on MCF-7 cells. Particulars: cold competitor array.
Source text: as §1

In assay [9] the target is T4, CXCR4 on E13 fetal liver cells (Mus musculus).
T4 construct: from tissue; host or cells: fetal liver cells of wildtype mouse embryos, E13
T4 sequence (P56485 whole entry): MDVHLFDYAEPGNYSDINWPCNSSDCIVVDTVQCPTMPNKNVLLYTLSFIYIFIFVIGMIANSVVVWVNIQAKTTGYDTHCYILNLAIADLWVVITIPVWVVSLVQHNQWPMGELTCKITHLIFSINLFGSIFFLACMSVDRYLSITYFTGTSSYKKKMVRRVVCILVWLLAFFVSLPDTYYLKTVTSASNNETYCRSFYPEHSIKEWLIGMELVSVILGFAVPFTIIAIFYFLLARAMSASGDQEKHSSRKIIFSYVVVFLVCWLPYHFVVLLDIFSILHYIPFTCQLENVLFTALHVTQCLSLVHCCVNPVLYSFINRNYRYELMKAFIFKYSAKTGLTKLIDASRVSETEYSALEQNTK
Kind of assay: Radiolabeled human-SDF-1 binding competition on E13 fetal liver cells. Particulars: wildtype mouse embryo E13 fetal liver cells.

The target of assay [10] is T2, CXCR4 on MCF-7 cells. The experiment in a line: 125I I-TAC competition binding on MCF-7 cells.
Source text: as §1, with “Following incubation in all binding assays, reactions were aspirated onto PEI-treated GF/B glass filters (Packard) using a cell harvester (Packard) and washed twice (25 mM HEPES, 500 mM NaCl, 1 mM CaCl2, 5 mM MgCl2, adjusted to pH 7.1).” left out

In assay [11] the target is T5, CCR1 (Homo sapiens, UniProt P32246).
T5 sequence (P32246 1-355): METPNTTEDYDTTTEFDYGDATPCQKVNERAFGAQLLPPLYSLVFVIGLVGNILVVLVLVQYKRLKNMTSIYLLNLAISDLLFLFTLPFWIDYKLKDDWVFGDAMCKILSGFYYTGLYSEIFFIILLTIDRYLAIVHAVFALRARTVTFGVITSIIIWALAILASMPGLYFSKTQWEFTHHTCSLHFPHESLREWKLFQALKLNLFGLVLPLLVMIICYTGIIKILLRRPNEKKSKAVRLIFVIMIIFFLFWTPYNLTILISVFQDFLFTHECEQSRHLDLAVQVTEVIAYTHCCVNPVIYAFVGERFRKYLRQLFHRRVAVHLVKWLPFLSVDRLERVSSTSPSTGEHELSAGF
Kind of assay: Intracellular Ca2+ mobilization via CCR1. Type of assay: cell-based. More on the design: endogenous in cells; host or cells: THP-1, monocytes, neutrophils, immature DC (endogenous); also HEK293-CCR1 and NSO-CCR1 transfectants.

Assay [12] deals with T6, CCR1 expressed on HEK293 transfectants (UniProt P32246 1-355).
T6 chain: T5 sequence (P32246 1-355)
Kind of assay: 125I MIP-1α competition binding on cells; HEK293-CCR1 cells.

For assay [13], the target named is T7, CCR1 on THP-1 cells (acute monocytic leukemia) (UniProt P32246 1-355).
T7 chain: T5 sequence (P32246 1-355)
Kind of assay: 125I MIP-1α competition binding on cells; THP-1 cells.

The target of assay [14] is T8, CCR1 on monocytes (UniProt P32246 1-355).
T8 chain: T5 sequence (P32246 1-355)
Kind of assay: 125I MIP-1α competition binding on cells; monocytes.

Assay [15] addresses T9, CCR1 expressed on NSO transfectants (UniProt P32246 1-355).
T9 chain: T5 sequence (P32246 1-355)
Kind of assay: 125I MIP-1α competition binding on cells; NSO-CCR1 cells.

The target of assay [16] is T5, CCR1. Kind of assay: CCR1 mediated cell migration. It counts as cell-based.
Assay [17] addresses T10, CCR1 expressed on HEK293 transfectants (human, UniProt P32246 1-355).
T10 construct: CCR1 cDNA transfected into HEK293 cells; also called HEK293-CCR1
T10 sequence: T5 sequence (P32246 1-355)
The experiment in a line: competition against ^125I MIP-1α on HEK293-CCR1 cells.

For assay [18], the target named is T11, CCR1 expressed on NSO transfectants (human, UniProt P32246 1-355).
T11 construct: CCR1 transfectant of NSO cells; also called NSO-CCR1
T11 sequence: T5 sequence (P32246 1-355)
Kind of assay: competition against ^125I MIP-1α on NSO-CCR1 cells.

For a further assay, the target named is T12, CXCR4 on CEM-NKr cells (Homo sapiens, UniProt P61073).
T12 construct: host or cells: CEM-NKr (whole cells)
T12 sequence (P61073 whole entry): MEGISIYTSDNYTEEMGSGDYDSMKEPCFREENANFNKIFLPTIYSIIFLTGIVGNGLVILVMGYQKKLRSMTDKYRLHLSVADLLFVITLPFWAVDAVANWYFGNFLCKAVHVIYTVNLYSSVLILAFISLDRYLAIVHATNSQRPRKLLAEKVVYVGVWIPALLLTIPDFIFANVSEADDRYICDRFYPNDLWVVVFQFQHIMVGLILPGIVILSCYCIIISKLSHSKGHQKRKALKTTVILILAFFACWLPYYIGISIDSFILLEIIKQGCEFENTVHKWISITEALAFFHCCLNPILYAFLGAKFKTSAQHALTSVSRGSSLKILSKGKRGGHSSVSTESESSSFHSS
The experiment in a line: 125I SDF-1α competition binding on CEM-NKr cells. Particulars: cold competitor array.
Source text: as §1, with “Following incubation in all binding assays, reactions were aspirated onto PEI-treated GF/B glass filters (Packard) using a cell harvester (Packard) and washed twice (25 mM HEPES, 500 mM NaCl, 1 mM CaCl2, 5 mM MgCl2, adjusted to pH 7.1).” left out

Assay [19] deals with CXCR4 as expressed on breast tumor cells (MCF-7, MDA MB-231) (human) (UniProt P61073). Kind of assay: homologous competition against ^125I I-TAC on MCF-7 cells, medium alone.
For assay [20] the target is unchanged. The experiment in a line: homologous competition against ^125I I-TAC on MCF-7 cells pre-incubated with excess MIG (~175 nM).

Bounds are passed on as bounds.

The text below walks through data of US7413866B2, “Compositions and methods for detecting and treating diseases and conditions related to chemokine receptors” (ChemoCentryx, Inc., priority 2001, dated 2008).

For orientation: IC50 means the concentration that gives 50% inhibition. Higher therefore signals weaker potency.

T2 sequence (P25106 whole entry): as the sequence (P25106 whole entry) above
T1 sequence (P70658 whole entry): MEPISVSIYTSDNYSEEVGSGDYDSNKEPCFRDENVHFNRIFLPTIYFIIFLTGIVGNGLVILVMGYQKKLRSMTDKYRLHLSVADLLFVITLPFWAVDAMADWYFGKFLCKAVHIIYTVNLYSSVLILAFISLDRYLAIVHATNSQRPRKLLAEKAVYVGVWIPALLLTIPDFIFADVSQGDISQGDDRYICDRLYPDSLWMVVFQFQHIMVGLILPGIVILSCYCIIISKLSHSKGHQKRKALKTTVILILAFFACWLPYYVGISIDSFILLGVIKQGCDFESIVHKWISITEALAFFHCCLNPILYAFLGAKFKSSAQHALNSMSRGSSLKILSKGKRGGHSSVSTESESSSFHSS

For “SDF-1: CXC chemokine, ligand for CXCR4, isoform not stated”, the “intracellular calcium mobilization in E17 fetal liver cells” value in assay [1] is listed as “mobilizing intracellular calcium”. For the same molecule, the cell invasion result with MDA MB-231 cells was “induced cell invasion”. In addition, the “recovery from serum starvation induced apoptosis” value in [2] is recorded as “able to recover from the starvation”.
As for “CKβ8 (25-99) (from UniProt P55773 46-120)”, the half-inhibitory concentration (IC50) worked out at 0.27 nM in assay [3], 0.25 nM with CCR1 on monocytes [4], 1.34 nM in [5] and 0.02 nM in assay [6].
Regarding “I-TAC: recombinant human chemokine, reported CXCR3 ligand”, in the assay with CXCR4 on MCF-7 cells [7], the “competition with / inhibition of 125I SDF-1α binding on MCF-7 (in words)” value is reported as “does compete”. Moreover, the “DisplaceMax displacement of 125I SDF-1α on MCF-7, affinity class” value in [8] is listed as “high affinity”. The “competition with radiolabeled human-SDF-1 for binding to E13 fetal liver cells” value in assay [9] is on record as “able to compete”.
Turning to “MIG: monokine induced by gamma interferon, CXCR3 ligand”, the “inhibition of 125I I-TAC binding to MCF-7 by cold chemokine competitor (in words)” value with CXCR4 on MCF-7 cells [10] (MCF-7 cells) is “not inhibited”. Besides, in the assay with CXCR4 on MCF-7 cells [10] (excess SDF-1β ~90 nM or excess MIG ~175 nM, 30 min at 4° C.), the “effect of pre-incubation with excess chemokine on 125I I-TAC binding to MCF-7” value is “did not effect this binding profile”.

B1: mMIP-1γ: CCR1 ligand (protein)
chain: QITHATETKEVQSSLKAQQGLEIEMFHMGFQDSSDCCLSYNSRIQCSRFIGYFPTSGGCTRPGIIFISKRGFQVCANPSDRRVQRCIERLEQNSQPRTYKQ
As to B1, in the assay with CCR1 [11], the “Ca2+ mobilization in HEK293-CCR1, THP-1 and monocytes” value (shortened to “Ca2+ mobilization in HEK293-CCR1”) is given as “able to mobilize Ca2+”; the “Ca2+ mobilization in neutrophils” value was “do not mobilize Ca2+”.

B2: MIP-1α (ligand)
chain: ADTPTACCFSYTSRQIPQNFIADYFETSSQCSKPGVIFLTKRSRQVCADPSEEWVQKYVSDLELSA
modifications: also: 125I label where used as radioligand
For B2, the IC50 in assay [12] was 0.54 nM; in assay [13], 0.17 nM; with CCR1 on monocytes [14] it was 0.27 nM; in assay [15] it was 0.15 nM.

B3: MIP-1α: CC chemokine, CCR1 ligand (protein)
chain: B2 chain
Regarding B3, in the assay with CCR1 [11], the “Ca2+ mobilization in HEK293-CCR1” value was “able to mobilize Ca2+”; the “Ca2+ mobilization in neutrophils” value was “do not mobilize Ca2+”.

B4: CKβ8 (1-99) (ligand)
chain: RVTKDAETEFMMSKLPLENPVLLDRFHATSADCCISYTPRSIPCSLLESYFETNSECSKPGVIFLTKKGRRFCANPSDKQVQVCMRMLKLDTRIKTRKN
notes: The numbers 1-99 count on the mature chemokine, not on the precursor; also called CCL23 (99-amino acid form)
As to B4, in the assay with CCR1 [16] (CCR1 expressed on neutrophils), the “induction of cell migration, neutrophils” value is given as “does not induce cell migration”. Further, the “induction of CCR1 mediated cell migration, THP-1 cells, monocytes and immature DC” value with CCR1 [16] (THP-1 cells, monocytes and immature DC) is “can induce CCR1 mediated cell migration”. In addition, the IC50 in assay [13] came out at 6.3 nM; in [17], 64 nM; in [18], 3.9 nM; with CCR1 on monocytes [14], 10.3 nM. The “Ca2+ mobilization in HEK293-CCR1” value with CCR1 [11] is given as “able to mobilize Ca2+”. For the same molecule, the “Ca2+ mobilization in neutrophils” value with CCR1 [11] was “do not mobilize Ca2+”.

B5: Leukotactin (ligand)
chain: SFHFAADCCTSYISQSIPCSLMKSYFETSSECSKPGVIFLTKKGRQVCAKPSGPGVQDCMKKLKPYSI
As for B5, the IC50 in assay [12] is < 0.2 nM; in assay [13], < 0.2 nM; with CCR1 on monocytes [14], < 0.2 nM; in assay [15] it was 0.02 nM. Also, the “Ca2+ mobilization in HEK293-CCR1” value in the assay with CCR1 [11] was “able to mobilize Ca2+”. The “Ca2+ mobilization in neutrophils” value in the assay with CCR1 [11] is on record as “do not mobilize Ca2+”.

B6: mI-TAC: murine recombinant chemokine I-TAC (protein)
chain: FLMFKQGRCLCIGPGMKAVKMAEIEKASVIYPSNGCDKVEVIVTMKAHKRQRCLDPRSKQARLIMQAIEKKNFLRRQNM
For the molecule B6, in assay [8], the “DisplaceMax displacement of 125I SDF-1α on MCF-7, affinity class” value is listed as “high affinity”.

B7: HHV8 vMIP-II: viral recombinant chemokine (protein)
chain: LGASWHRPDKCCLGYQKRPLPQVLLSSWYPTSQLCSKPGVIFLTKRGRQVCADKSKDWVKKLMQQLPVTAR
As for B7, in the assay with CXCR4 on CEM-NKr cells, the “DisplaceMax displacement of 125I SDF-1α on CEM-NKr, affinity class” value is reported as “potential moderate affinity”.

B8: human I-TAC (ligand, UniProt O14625 22-94, looked up)
chain: FPMFKRGRCLCIGPGVKAVKVADIEKASIMYPSNNCDKIEVIITLKENKGQRCLNPKSKQARLIIKKVERKNF
modifications: 125I label where used as the radioligand
Regarding B8, the IC50 in assay [19] and in assay [20] was 1 nM throughout.
